Data reported in patent US20060240053.

T1: peptide substrate EFDLELIEED (SEQ ID NO: 31)
T1 chain: EFDLELIEED

T2: RP2 retropepsin inhibitor Ac-Leu-Leu-Met-aldehyde (Bachem N 1315.0005)
T2 chain: LLM

T3: corneodesmosin extracted from human stratum corneum, Q15517
T3 chain: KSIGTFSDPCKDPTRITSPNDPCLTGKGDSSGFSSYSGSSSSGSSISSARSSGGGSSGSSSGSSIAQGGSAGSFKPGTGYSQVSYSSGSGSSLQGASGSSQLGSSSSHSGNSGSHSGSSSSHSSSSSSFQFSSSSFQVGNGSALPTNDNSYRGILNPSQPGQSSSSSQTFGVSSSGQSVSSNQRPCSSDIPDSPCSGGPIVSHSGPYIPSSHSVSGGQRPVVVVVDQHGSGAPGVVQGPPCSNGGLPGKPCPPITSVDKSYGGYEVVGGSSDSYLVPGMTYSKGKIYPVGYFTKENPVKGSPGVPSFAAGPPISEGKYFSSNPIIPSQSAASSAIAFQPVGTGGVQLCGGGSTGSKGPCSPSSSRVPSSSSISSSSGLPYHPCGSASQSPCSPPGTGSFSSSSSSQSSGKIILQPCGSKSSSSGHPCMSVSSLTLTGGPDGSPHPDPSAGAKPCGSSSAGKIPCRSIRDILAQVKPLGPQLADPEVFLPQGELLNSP

T4: RP1 retropepsin inhibitor Ac-Leu-Val-Phe-aldehyde (Bachem N 1395.0005)
T4 chain: LVF

T5: RP3 retropepsin inhibitor Ac-Leu-Leu-Nle-aldehyde (Bachem N 1320.0005)
T5 chain: LLX

B1: recombinant fusion protein GST-SASPase delta1-84 (SEQ ID NO: 4) (protein)
chain: MAGSGARSEEGRRQHAFVPEPFDGANVVPNLWLHSFEVINDLNHWDHITKLRFLKESLRGEALGVYNRLSPQDQGDYGTVKEALLKAFGVPGAAPSHLPKEIVFANSMGKGYYLKGKIGKVPVRFLVDSGAQVSVVHPNLWEEVTDGDLDTLQPFENVVKVANGAEMKILGVWDTAVSLGKLKLKAQFLVANASAEEAIIGTDVLQDHNAILDFEHRTCTLKGKKFRLLPVGGSLEDEFDLELIEEDPSSEEGRQELSH
B2: activated SASPase (SEQ ID NO: 6) (protein)
chain: ANSMGKGYYLKGKIGKVPVRFLVDSGAQVSVVHPNLWEEVTDGDLDTLQPFENVVKVANGAEMKILGVWDTAVSLGKLKLKAQFLVANASAEEAIIGTDVLQDHNAILDFEHRTCTLKGKKFRLLPVGGSLEDEFDLE

Legend:
[1] = target: T1, peptide substrate EFDLELIEED (SEQ ID …)
[2] = target: peptide substrates with amino acid substitutions (among SEQ ID NO: 32, 33, 34, 35)
[3] = target: T2, RP2 retropepsin inhibitor …
[4] = target: T3, corneodesmosin extracted from human …
[5] = target: casein substrate sold under the name Enzchek (Molecular Probes)
[6] = target: T4, RP1 retropepsin inhibitor …
[7] = target: oxidized beta-chain of insulin (Sigma)
[8] = target: T5, RP3 retropepsin inhibitor …

Chain of oxidized beta-chain of insulin (Sigma) (chain, as listed by the source): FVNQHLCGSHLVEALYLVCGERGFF

| Protein | hydrolysis of quenched peptide substrate (fluorescence 340/450 nm) [1] | autocleavage in acetate buffer pH 4.5, SDS-PAGE over time | hydrolysis of quenched peptide substrate (fluorescence 340/450 nm) [2] | kinetics for casein hydrolysis (fluorescence 485/535 nm) [3] | % Residual corneodesmosin T24 h/T0*100 [4] | caseinolytic activity [5] | kinetics for casein hydrolysis (fluorescence 485/535 nm) [6] | hydrolysis of the substrate followed by HPLC [7] | kinetics for casein hydrolysis (fluorescence 485/535 nm) [8] |
| --- | --- | --- | --- | --- | --- | --- | --- | --- | --- |
| B1 | the natural (wt) peptide is effectively hydrolyzed by the SASPase | A decrease in the whole form GST-SASPase C27 is observed over time, which demonstrates an autocleavage and, consequently, an autoactivation | amino acid substitutions in the sequence of this peptide can generate substrates for which the SASPase has greater affinity | – | – | – | – | – | – |
| B2 | – | – | – | the kinetics for casein hydrolysis, in the presence of the RP1 and RP2 retropepsin inhibitors, are lower than the control | 75% | Its caseinolytic activity was, moreover, demonstrated (results not shown) | the kinetics for casein hydrolysis, in the presence of the RP1 and RP2 retropepsin inhibitors, are lower than the control | These results show that the activated SASPase is capable of degrading insulin | the kinetics for casein hydrolysis, in the presence of the RP3 retropepsin inhibitor, are significantly higher than those obtained under the control conditions |
